Here are results for three molecules from PMC4445002, “Efficient inhibition of tumor angiogenesis and growth by a synthetic peptide blocking S100A4-methionine aminopeptidase 2 interaction” (Molecular Therapy. Methods & Clinical Development, 2015).

In test [1] the test system is MSS31 cells. Kind of test: DNA synthesis (BrdU uptake ELISA) in retrovirally infected cells. Conditions: retroviral overexpression, 10% FBS and 10 μmol/l BrdU for 6 hours, OD450. Format: cell-based, mouse. The procedure:
cDNA fragments encoding amino acids 1–169 [MetAP2(1–169)] or 1–229 [MetAP2(1–229)] of MetAP2 were PCR amplified and inserted into the multicloning site (SalI/NotI site) of the pRX-puro vector (Supplementary Figure S1).
DNA synthesis was quantified by measuring bromodeoxyuridine (BrdU) incorporation using the Cell Proliferation ELISA BrdU kit (Roche Applied Science, Penzberg, Upper Bavaria, Germany). MSS31 cells cultured for 24 hours in a medium containing 0.2% serum were stimulated with a medium containing 10% FBS and 10 μmol/l BrdU for 6 hours. The cells were harvested and BrdU uptake was measured according to the manufacturer’s protocol. Briefly, the cells were fixed, denatured, and incubated with the monoclonal anti-BrdU-peroxidase antibody. The immune complexes were then detected by the subsequent reaction with tetramethyl-benzidine. The reaction product was quantified by measuring the absorbance (OD450) using a scanning multiwell spectrophotometer.
(ELISA stands for enzyme-linked immunosorbent assay.)

In test [2] the test system is S100A4. As to the kind of experiment: FRET acceptor-photobleaching analysis in live HeLa cells. Format: binding. As to conditions: ECFP fusion cotransfected with EYFP-S100A4, acceptor photobleaching, n = 8–11, **P < 0.01, ***P < 0.001.

B1: MetAP2(1–169): truncated MetAP2, amino acids 1–169, control, expressed from retrovirus (protein, UniProt P50579 1-169, looked up, fragment)
chain: MAGVEEVAASGSHLNGDLDPDDREEGAASTAEEAAKKKRRKKKKSKGPSAAGEQEPDKESGASVDEVARQLERSALEDKERDEDDEDGDGDGDGATGKKKKKKKKKRGPKVQTDPPSVPICDLYPNGVFPKGQECEYPPTQDGRTAAWRTTSEEKKALDQASEEIWNDF
On to B1, for which the “serum-induced DNA synthesis” value in test [1] was “but not MetAP2(1–169), resulted in a marked suppression of serum-induced DNA synthesis”.

B2: MetAP2(1–229): truncated form of MetAP2, amino acids 1–229, expressed from retrovirus (protein, UniProt P50579 1-229, looked up, fragment)
chain: MAGVEEVAASGSHLNGDLDPDDREEGAASTAEEAAKKKRRKKKKSKGPSAAGEQEPDKESGASVDEVARQLERSALEDKERDEDDEDGDGDGDGATGKKKKKKKKKRGPKVQTDPPSVPICDLYPNGVFPKGQECEYPPTQDGRTAAWRTTSEEKKALDQASEEIWNDFREAAEAHRQVRKYVMSWIKPGMTMIEICEKLEDCSRKLIKENGLNAGLAFPTGCSLNNCA
Take B2: the “serum-induced DNA synthesis” value in test [1] is “resulted in a marked suppression of serum-induced DNA synthesis”.

B3: ECFP-MetAP2: ECFP-tagged full-length MetAP2 expressed in HeLa cells (protein)
chain: AGVEQAASFGGHLNGDLDPDDREEGTSSTAEEAAKKKRRKKKKGKGAVSAVQQELDKESGALVDEVAKQLESQALEEKERDDDDEDGDGDADGATGKKKKKKKKKRGPKVQTDPPSVPICDLYPNGVFPKGQECEYPPTQDGRTAAWRTTSEEKKALDQASEEIWNDFREAAEAHRQVRKYVMSWIKPGMTMIEICEKLEDCSRKLIKENGLNAGLAFPTGCSLNNCAAHYTPNAGDTTVLQYDDICKIDFGTHISGRIIDCAFTVTFNPKYDILLTAVKDATNTGIKCAGIDVRLCDVGEAIQEVMESYEVEIDGKTYQVKPIRNLNGHSIGPYRIHAGKTVPIVKGGEATRMEEGEVYAIETFGSTGKGVVHDDMECSHYMKNFDVGHVPIRLPRTKHLLNVINENFGTLAFCRRWLDRLGESKYLMALKNLCDLGIVDPYPPLCDIKGSYTAQFEHTILLRPTCKEVVSRGDDY
modifications: left off: ECFP, end not stated, kept
notes: ECFP-tagged full-length MetAP2 expressed in HeLa cells
Consider B3, for which the “FRET efficiency with EYFP-S100A4 vs negative controls” value in test [2] is “significantly higher than that of the negative controls”.
